Reference: patent US20230140293A1

Assays:
Test in all cases: cell-based or functional assay
[1] = biological target: HIV-1 Env 426c.DM (N460D.N463D), Env-pseudotyped virus produced in 293T cells (HIV-1 clade C strain 426c)
[2] = biological target: HIV-1 Env 426c.TM (N276D.N460D.N463D), Env-pseudotyped virus produced in 293T cells (HIV-1 clade C strain 426c)
[3] = biological target: HIV-1 clade C strain 426c Env on Env-pseudotyped virus produced in 293T cells (HIV-1)
[4] = biological target: HIV-1 clade C strain 426c Env on Env-pseudotyped virus produced in 293s/GnTI-/- cells (Man5-enrichment) (HIV-1)
[5] = biological target: CH0505.w4.3 Env, Env-pseudotyped virus produced in 293T cells (HIV-1)
[6] = biological target: CH0505TF.gly3.197 Env, Env-pseudotyped virus produced in 293S GnTI- cells (Man5-enriched) (HIV-1)
[7] = biological target: CH0505TF Env, Env-pseudotyped virus produced in 293S GnTI- cells (Man5-enriched) (HIV-1)
[8] = biological target: CH0505TF.gly4 Env, Env-pseudotyped virus produced in 293T cells (HIV-1)
[9] = biological target: HIV-1 426c.TM (N276D/N460D/N463D) Env on Env-pseudotyped virus produced in 293s/GnTI-/- cells (Man5-enrichment) (HIV-1)
[10] = biological target: CH0505TF.G458Y Env, Env-pseudotyped virus produced in 293T cells (HIV-1)
[11] = biological target: CH0505TF.gly3.276 Env, Env-pseudotyped virus produced in 293T cells (HIV-1)
[12] = biological target: CH0505TF Env, Env-pseudotyped virus produced in 293T cells (HIV-1)
[13] = biological target: HIV-1 Env 426c.TM4 (S278R.G471S.N460D.N463D), Env-pseudotyped virus produced in 293T cells (HIV-1 clade C strain 426c)
[14] = biological target: HIV-1 Env 426c.SM (N276D), Env-pseudotyped virus produced in 293S GnTI- cells (Man5-enriched) (HIV-1 clade C strain 426c)
[15] = biological target: HIV-1 Env 426c, Env-pseudotyped virus produced in 293T cells (HIV-1 clade C strain 426c)
[16] = biological target: HIV-1 Env 426c.TM4 (S278R.G471S.N460D.N463D), Env-pseudotyped virus produced in 293S GnTI- cells (Man5-enriched) (HIV-1 clade C strain 426c)
[17] = biological target: HIV-1 Env 426c.TM (N276D.N460D.N463D), Env-pseudotyped virus produced in 293S GnTI- cells (Man5-enriched) (HIV-1 clade C strain 426c)
[18] = biological target: CH0505TF.gly3.197 Env, Env-pseudotyped virus produced in 293T cells (HIV-1)
[19] = biological target: CH0505TF.gly3.461 Env, Env-pseudotyped virus produced in 293S GnTI- cells (Man5-enriched) (HIV-1)
[20] = biological target: HIV-1 426c.DM (N460D/N463D) Env on Env-pseudotyped virus produced in 293s/GnTI-/- cells (Man5-enrichment) (HIV-1)
[21] = biological target: CH0505TF.G458Y Env, Env-pseudotyped virus produced in 293S GnTI- cells (Man5-enriched) (HIV-1)
[22] = biological target: HIV-1 Env 426c, Env-pseudotyped virus produced in 293S GnTI- cells (Man5-enriched) (HIV-1 clade C strain 426c)
[23] = biological target: HIV-1 426c.TM (N276D/N460D/N463D) Env on Env-pseudotyped virus produced in 293T cells (HIV-1)
[24] = biological target: HIV-1 426c.SM (N276D) Env on Env-pseudotyped virus produced in 293s/GnTI-/- cells (Man5-enrichment) (HIV-1)
[25] = biological target: HIV-1 426c.SM (N276D) Env on Env-pseudotyped virus produced in 293T cells (HIV-1)
[26] = biological target: HIV-1 Env 426c.DM (N460D.N463D), Env-pseudotyped virus produced in 293S GnTI- cells (Man5-enriched) (HIV-1 clade C strain 426c)
[27] = biological target: CH0505TF.gly3.276 Env, Env-pseudotyped virus produced in 293S GnTI- cells (Man5-enriched) (HIV-1)
[28] = biological target: CH0505TF.gly4 Env, Env-pseudotyped virus produced in 293S GnTI- cells (Man5-enriched) (HIV-1)
[29] = biological target: HIV-1 426c.DM (N460D/N463D) Env on Env-pseudotyped virus produced in 293T cells (HIV-1)
[30] = biological target: CH0505TF.gly3.461 Env, Env-pseudotyped virus produced in 293T cells (HIV-1)
[31] = biological target: HIV-1 Env 426c.SM (N276D), Env-pseudotyped virus produced in 293T cells (HIV-1 clade C strain 426c)

| Substance | IC50 (µg/ml) in TZM-bl [1] [µg/mL] | IC50 (µg/ml) in TZM-bl [2] [µg/mL] | ID50/IC50 in TZM-bl [3] [µg/mL] | ID50/IC50 in TZM-bl [4] [µg/mL] | IC50 (µg/ml) in TZM-bl [5] [µg/mL] | IC50 (µg/ml) in TZM-bl [6] [µg/mL] | IC50 (µg/ml) in TZM-bl [7] [µg/mL] | IC50 (µg/ml) in TZM-bl [8] [µg/mL] | ID50/IC50 in TZM-bl [9] [µg/mL] | IC50 (µg/ml) in TZM-bl [10] [µg/mL] | IC50 (µg/ml) in TZM-bl [11] [µg/mL] | IC50 (µg/ml) in TZM-bl [12] [µg/mL] | IC50 (µg/ml) in TZM-bl [13] [µg/mL] | IC50 (µg/ml) in TZM-bl [14] [µg/mL] | IC50 (µg/ml) in TZM-bl [15] [µg/mL] | IC50 (µg/ml) in TZM-bl [16] [µg/mL] | IC50 (µg/ml) in TZM-bl [17] [µg/mL] | IC50 (µg/ml) in TZM-bl [18] [µg/mL] | IC50 (µg/ml) in TZM-bl [19] [µg/mL] | ID50/IC50 in TZM-bl [20] [µg/mL] | also measured |
| --- | --- | --- | --- | --- | --- | --- | --- | --- | --- | --- | --- | --- | --- | --- | --- | --- | --- | --- | --- | --- | --- |
| CH01 (antibody) | > 25 | > 25 | > 25 | > 25 | > 20 | 0.22 | 0.8 | 8.8 | > 25 | 1 | 5.7 | 4.1 | > 25 | > 25 | > 25 | > 25 | > 25 | 3.8 | 0.09 | > 25 | IC50 (µg/ml) in TZM-bl [21]: 0.1 µg/mL; IC50 (µg/ml) in TZM-bl [22]: > 25 µg/mL; ID50/IC50 in TZM-bl [23]: > 25 µg/mL; ID50/IC50 in TZM-bl [24]: > 25 µg/mL; ID50/IC50 in TZM-bl [25]: > 25 µg/mL; IC50 (µg/ml) in TZM-bl [26]: > 25 µg/mL; IC50 (µg/ml) in TZM-bl [27]: 1 µg/mL; IC50 (µg/ml) in TZM-bl [28]: 0.1 µg/mL; ID50/IC50 in TZM-bl [29]: > 25 µg/mL; IC50 (µg/ml) in TZM-bl [30]: 7.7 µg/mL; IC50 (µg/ml) in TZM-bl [31]: > 25 µg/mL |
| DH511.2_K3 (antibody) | 1.5 | 1.06 | 0.8 | 0.85 | 0.02 | 2.5 | 0.95 | 2.1 | 1.2 | 0.6 | 2.9 | 3.4 | 0.56 | 0.87 | 0.8 | 0.56 | 1.2 | 3.1 | 1.6 | 0.75 | IC50 (µg/ml) in TZM-bl [21]: 1.2 µg/mL; IC50 (µg/ml) in TZM-bl [22]: 0.85 µg/mL; ID50/IC50 in TZM-bl [23]: 1.06 µg/mL; ID50/IC50 in TZM-bl [24]: 0.87 µg/mL; ID50/IC50 in TZM-bl [25]: 0.77 µg/mL; IC50 (µg/ml) in TZM-bl [26]: 0.75 µg/mL; IC50 (µg/ml) in TZM-bl [27]: 1.7 µg/mL; IC50 (µg/ml) in TZM-bl [28]: 1.1 µg/mL; ID50/IC50 in TZM-bl [29]: 1.5 µg/mL; IC50 (µg/ml) in TZM-bl [30]: 2.8 µg/mL; IC50 (µg/ml) in TZM-bl [31]: 0.77 µg/mL |
| F105 (antibody) | > 25 | > 25 | > 25 | > 25 | 10.8 | > 25 | > 25 | > 25 | > 25 | > 25 | > 25 | > 25 | > 25 | > 25 | > 25 | > 25 | > 25 | > 25 | > 25 | > 25 | IC50 (µg/ml) in TZM-bl [21]: > 25 µg/mL; IC50 (µg/ml) in TZM-bl [22]: > 25 µg/mL; ID50/IC50 in TZM-bl [23]: > 25 µg/mL; ID50/IC50 in TZM-bl [24]: > 25 µg/mL; ID50/IC50 in TZM-bl [25]: > 25 µg/mL; IC50 (µg/ml) in TZM-bl [26]: > 25 µg/mL; IC50 (µg/ml) in TZM-bl [27]: > 25 µg/mL; IC50 (µg/ml) in TZM-bl [28]: > 25 µg/mL; ID50/IC50 in TZM-bl [29]: > 25 µg/mL; IC50 (µg/ml) in TZM-bl [30]: > 25 µg/mL; IC50 (µg/ml) in TZM-bl [31]: > 25 µg/mL |
